Biological target: Recombinant Mtb protein GroEL2 (Mycobacterium tuberculosis, UniProt P9WPE7 1-540)
Sequence (P9WPE7 whole entry): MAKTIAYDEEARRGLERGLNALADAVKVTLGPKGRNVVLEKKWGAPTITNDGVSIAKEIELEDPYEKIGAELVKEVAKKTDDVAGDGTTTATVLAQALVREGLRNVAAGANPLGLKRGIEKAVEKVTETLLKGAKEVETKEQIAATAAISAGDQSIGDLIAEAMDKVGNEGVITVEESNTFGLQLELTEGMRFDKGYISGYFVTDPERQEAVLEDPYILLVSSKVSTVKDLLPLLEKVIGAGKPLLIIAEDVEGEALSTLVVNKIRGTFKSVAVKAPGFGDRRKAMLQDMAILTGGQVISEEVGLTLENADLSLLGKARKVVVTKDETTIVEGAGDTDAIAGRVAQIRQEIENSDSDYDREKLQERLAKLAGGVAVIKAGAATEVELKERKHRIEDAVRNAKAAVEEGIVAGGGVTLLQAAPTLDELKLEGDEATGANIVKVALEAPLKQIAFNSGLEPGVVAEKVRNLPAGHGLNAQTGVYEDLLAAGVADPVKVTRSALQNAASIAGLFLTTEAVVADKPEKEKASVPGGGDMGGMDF

B1: anti-GroEL2 antibody 103.11 (antibody, V domains shown)
VH: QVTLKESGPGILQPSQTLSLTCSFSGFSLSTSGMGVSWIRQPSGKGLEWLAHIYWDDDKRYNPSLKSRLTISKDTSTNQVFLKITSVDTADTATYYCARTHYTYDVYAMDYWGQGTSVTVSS
VL: QIVLTQSPAIMSASLGERVTMTCTASSSVSSSYLHWYRQKPGSSPKLWIYSASNLASGVPPRFSGSGSGTSYSLTISNMEAEDAATYYCHQYHRSPWTFGGGTKLEIKR
- EC50 (read off the curve): ~0.02 µg/mL

Reference: US20260092103A1 (ALBERT EINSTEIN COLLEGE OF MEDICINE, published 2026)
